Molecular target: HPV 16 E786-93 epitope […] (X aminobutyric acid) presented by HLA-A2.1 (human papilloma virus (HPV) 16; human)

Q: With “freshly isolated HLA-A2 positive CD8+ (CTLs) and CD4+ (HTLs) T cells (cells without a defined receptor)” as the substance, how does the IFN γ Elispot, frequency of spots (250,000 cells per well) read?
A: 0.02%
